Results on one molecule are retold here after PMC9416547 (Nucleic Acid Therapeutics, 2022).

Experiment [1] addresses T1, MBP-tagged full-length NAT10 (UniProt Q9H0A0 1-1025).
T1 sequence (looked up): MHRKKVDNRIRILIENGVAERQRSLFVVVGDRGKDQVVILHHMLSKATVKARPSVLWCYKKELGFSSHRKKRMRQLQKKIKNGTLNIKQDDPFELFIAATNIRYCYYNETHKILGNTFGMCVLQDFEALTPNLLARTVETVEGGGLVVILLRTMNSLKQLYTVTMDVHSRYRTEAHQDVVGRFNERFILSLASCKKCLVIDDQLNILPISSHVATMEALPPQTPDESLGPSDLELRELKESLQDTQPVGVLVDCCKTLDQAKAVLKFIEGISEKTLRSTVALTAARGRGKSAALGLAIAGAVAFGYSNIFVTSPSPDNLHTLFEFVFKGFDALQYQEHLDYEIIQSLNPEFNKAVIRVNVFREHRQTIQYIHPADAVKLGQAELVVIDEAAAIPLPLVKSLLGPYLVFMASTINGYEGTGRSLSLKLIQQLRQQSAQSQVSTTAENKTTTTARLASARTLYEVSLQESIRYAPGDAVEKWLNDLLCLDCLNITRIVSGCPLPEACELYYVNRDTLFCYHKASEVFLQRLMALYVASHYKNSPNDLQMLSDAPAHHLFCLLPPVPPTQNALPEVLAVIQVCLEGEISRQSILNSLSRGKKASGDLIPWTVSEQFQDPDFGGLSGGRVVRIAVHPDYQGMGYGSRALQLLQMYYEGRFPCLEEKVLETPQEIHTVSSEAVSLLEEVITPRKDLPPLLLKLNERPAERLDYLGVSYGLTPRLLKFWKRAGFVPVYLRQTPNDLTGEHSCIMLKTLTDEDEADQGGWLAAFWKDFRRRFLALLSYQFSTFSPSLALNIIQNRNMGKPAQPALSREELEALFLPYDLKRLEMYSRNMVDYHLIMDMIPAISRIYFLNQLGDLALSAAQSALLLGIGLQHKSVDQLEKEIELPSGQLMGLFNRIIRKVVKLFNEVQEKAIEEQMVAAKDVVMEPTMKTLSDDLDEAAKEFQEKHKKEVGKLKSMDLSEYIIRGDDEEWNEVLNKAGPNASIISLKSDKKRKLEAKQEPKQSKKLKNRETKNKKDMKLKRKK
In words: pull-down.

In experiment [2] the target is T2, MBP-tagged NAT10 CTD (541-1025 AA) (UniProt Q9H0A0 541-1025).
T2 sequence (looked up): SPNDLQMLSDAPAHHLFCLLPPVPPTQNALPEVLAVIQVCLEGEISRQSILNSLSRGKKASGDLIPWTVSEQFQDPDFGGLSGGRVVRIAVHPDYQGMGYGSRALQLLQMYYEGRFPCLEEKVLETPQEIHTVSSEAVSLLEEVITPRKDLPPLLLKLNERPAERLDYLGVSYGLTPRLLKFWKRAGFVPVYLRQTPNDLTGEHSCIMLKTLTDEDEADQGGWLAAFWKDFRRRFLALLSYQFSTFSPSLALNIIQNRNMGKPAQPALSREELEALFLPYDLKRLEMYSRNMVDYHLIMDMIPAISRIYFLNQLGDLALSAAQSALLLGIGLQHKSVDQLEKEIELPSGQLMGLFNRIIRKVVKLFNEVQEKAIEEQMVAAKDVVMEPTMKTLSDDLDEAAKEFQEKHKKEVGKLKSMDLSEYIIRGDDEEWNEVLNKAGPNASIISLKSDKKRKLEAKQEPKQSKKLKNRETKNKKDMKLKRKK
In words: pull-down.

B1: GST-fused full-length RNase H1 (enzyme, human, UniProt O60930 1-286, looked up)
chain: MSWLLFLAHRVALAALPCRRGSRGFGMFYAVRRGRKTGVFLTWNECRAQVDRFPAARFKKFATEDEAWAFVRKSASPEVSEGHENQHGQESEAKASKRLREPLDGDGHESAEPYAKHMKPSVEPAPPVSRDTFSYMGDFVVVYTDGCCSSNGRRRPRAGIGVYWGPGHPLNVGIRLPGRQTNQRAEIHAACKAIEQAKTQNINKLVLYTDSMFTINGITNWVQGWKKNGWKTSAGKEVINKEDFVALERLTQGMDIQWMHVPGHSGFIGNEEADRLAREGAKQSED
With B1, the binding result in experiment [1] and in experiment [2] was “binds” throughout.
